Molecular target: mLRPIV-HA, stably expressed in SH-SY5Y
Assay: co-IP + ELISA; SH-SY5Y cells stably expressing mLRPIV-HA incubated with Aβ42 and 1 to 200 nM DKK1 or DKK3; mLRPIV-HA precipitated with anti-HA affinity gel; Aβ42 in the eluate by ELISA

- percent reduction of Aβ42 binding to mLRPIV at 20 nM DKK1: 44%
B1: DKK1-Flag (ligand)
chain: TLNSVLNSNAIKNLPPPLGGAAGHPGSAVSAAPGILYPGGNKYQTIDNYQPYPCAEDEECGTDEYCASPTRGGDAGVQICLACRKRRKRCMRHAMCCPGNYCKNGICVSSDQNHFRGEIEETITESFGNDHSTLDGYSRRTTLSSKMYHTKGQEGSVCLRSSDCASGLCCARHFWSKICKPVLKEGQVCTKHRRKGSHGLEIFQRCYCGEGLSCRIQKDHHQASNSSRLHTCQRH
